Source: a protein production outcome set (Wang et al. 2014)

Test: label from the status in PepcDB records

Row | Sequence | protein production
1 | MAKDKRISLLKVTSMVIIINLLSKITGFIRDFITASKFGTSVSADAFSMSSVVPNIIFAILGAAIVNTFVPIFNDVIVNKGEKRAFKFSNNVITVLTLLSIILTLLGEIFCPQFVKLIAPDFHGYKYLLTIKLTRIFLLIIIVNTWVFLSTAILQAKEHFLIPSLIGIPYNLLVIVYLLFFSSKYGVLGLTEVIVFAMFVQFLIHVPSLARMKYRYKPEFNISDGYLKSMVVLLIPILLGTSVQQITSLFNGRFSSSLETGSVAALSYASRLNSLVMDIFVISIVTVIYPKMTKLSSENKIGELIESFNISIRSITIILFPIITIILIESVPIVKILFQRDAFGNKSTLMTSTALFYYIIGIIAAGLREVLCRMFYALKDTRTPMINSAITVLVNVVLAYYLKDVLRLGGIALASSIAAYVSSILLFIKLNSKLKNINYRKTIGVTIKVIFASIGMGIFLKVLYQIVGQALLKKAIIIEIIGFGGITLIALLIYMLILYLMKVEEINMVSAFLYKKIKRG | failed
2 | MAKDKTSRKAPMGSGRDALMQAFREAQRPLRLDMLLRILGLHRKEKRTLEESLEALQAEGRILRLRGGAWGLTDHMKMVTGTLQVQRTGMGFVLPEDRRRTDIYVHPTQMGEAWHGDKVVVVLLPGGRGRNPEGRIVRILERGLKEMPARVVKRMGRQGLLCRAADARIKVHFLVDVTGLEGKPQKDDILVVSPGERVEDGLWAATAVRHLGSEDDVSVQERLVKINHGVPTEFPVPVLEEAATLPPAPGGGDFADRIDLRHMEFVTIDGARARDFDDAICVEEQGKGWRLWVAIADVSHYVRPGSAMDREALERSNSYYFPQSVEPMLPEALSNGLCSLNPRVPRLAMVAEIYFFGEGSPGKCKFYPAVIESKARLTYGQVNRALLLGDEEERLVLRPVLPMLEQAEKLARVLHQRRRERGSLDFDLPEPEIAFNIYGETVDIRRKVRHFGHQIVEEFMIAANEAVARFLTEKEADFLYRVHPEPEPEKLSALFKVLAGTDIAQGLPREASAGALQTVLQKAHGSAQEFLISRLTLRTMMQARYSPEHEGHFGLASACYCHFTSPIRRYADLVVHRALKRALGGDPGPTPAGGKLVAIADQLSQHERKAMEAEREILKRLTVLLLRSRVGETLTGVISSILDFGFFVELNEVLADGMVRLSSLDDDYYAFIPERQELRGERTGRTFRLGQQVKVRLADVNVGRLEVNLELVREEGDDTPVPTRRRSAASGRDGSGRDGSGRGGRGRSRHDATPRVKASPDASPEVSADGDMPDGDRLPPWIRAATEEDDPRDTTRTRRRRDDDASSRDGGDRRRGRSRNEGARGAGNPARGKAPRDGAGGDRKKGDGRDGKDGQAGGKPAGKGQSRKGKASSHRKGQGRVKKSDE | failed
3 | MAKGNKIPLTFHTYQDAATGTEVVRLTPPDVICHRNYFYQKCFFNDGSKLLFGAAFDGPWNYYLLDLKEQNATQLTEGKGDNTFGGFLSPNDDALYYVKNTRNLMRVDLTTLEEKTIYQVPDDWVGYGTWVANSDCTKMVGIEIKKEDWKPLTDWKKFQEFYFTNPCCRLIRVDLVTGEAETILQENQWLGHPIYRPGDDNTVAFCHEGPHDLVDARMWFINEDGTNMRKVKEHAEGESCTHEFWVPDGSAMIYVSYLKDDTNRYIRSIDPVTLEDRQLRVMPPCSHLMSNYDGTLLVGDGSDAPVDVQDDGGYKIENDPFLYVFNLKTGKEHRIAQHNTSWEVLEGDRQVTHPHPSFTPDNKQVLFTSDVDGKPALYLAKVPDSVWNLEHHHHHH | not failed
4 | MAKGTAVEFQPGGGQARDVFSIAAQAASPAADAGTSAAPAQAAPAPAAVASQAQHFGRTAEPAEPTDLWSYFWNGVTRNYFNFAGRARRKEYWGYCLFWTIALLVIVGIGVFADAEMGNFDSAEMPAMTVGLFGLFLLATFLPSLGMIVRRLHDLGLTGWLCLLILIPTFGSLIILVFALIPTQGRENQWGPVPAGVRV | failed
5 | MAKIDALAPQYSRIILLGHSAGGMIVRDAYLLAAGAYLDQPSRGAWWSKVESVLLFASINRGFRPYATATWALGMALMKLVSLQWLLLKPPSWFTLGWLMELEKGSFFVTDLRLSWMRHFHERDDEHRPFVVQFLGDIDGVVAREDVRDTEAFANSYTVTIEGADHSNLFDPAAPPGAAGFMRIMEVFRNPDPQLHEPEQAGELPATGPGRVVFVLHGIRDGNSGWVTDIAEAIEQQAKSDGQGKPLAAACSGHESPVLVDRSTYGWFSAIKFALPWVRRGNLAWFLDRYSYHVARNPDVQFHFVGHSNGTYILGTSLLEVSSLKFDRVYLAGSVLPREFPWQRMMLRRQVATVANQCSSEDWPVGGLCRGLHLIGFRDVGTGGVDGFDELRDLPTQPQTLWFKGDHGKPLQRPNQPNIVNYVLASHIATPLLSAPTGADLCERPSFWFRARMYGFALLTALGVGAAFYGAWWGFTHDHEGLVIAGILLLYFVLNTI | failed
6 | MAKKDNFEEYAQLEEYASAEDISRVRAELLTCPELNTSLAGTIIEIDKNYAKSILITTSEMVADDQGLIFDAFIFAAANYVAQASINKEFSVIIGSKCFFYAPLKLGDVLELEAHALFDETSKKRDVKVVGHVKEVKMFEGTIQVVSTDEHIFKLKRPPLNTVKPTENQEQGAKINNPEAVAAALMASVGGK | failed
7 | MAKKILILGAAGEIARMLTDRLLAESDAELVLYGRNVSQRLALEENSRIKLVDGTFGESEKLEAALAGVDVVYLNSMSSPADTASVVQALEKAGVKRLLGATIAGVEDEVPYELATWTKNSLPASYIKGEYDSAKIVRDSNLDYTLLRLTWLFNDESDREYELVPSGVEFADAEVSRQAITQAILDILNGEESEYVRKSFGLGKPNTHYGKPSFY | failed
8 | MAKKPAAHATKPKPWTEMATHLVDVAMGRKPADLVIRNGRWVNVHSGEIIAGTDIAIAGGRFAYCGPNASHAIGQGTKVVDAGGRYLVPGLCDAHMHVESGMVTVTEFCRAVIPHGTTSMFIDPHEIANVLGLPGVRLMHDEAVAMPINVHVQMPSCVPSAPGLEHAGAELTVADVAEAMTWENIIGLGEVMNFPGVAANDPVMSGEIAATVRAGKTVGGHYASRDLGLPFHGYVAGGPEDDHEGTRAEDAIARVRQGMKAMLRLGSAWYDVASQIKAVTEGGIDPRNFILCTDDSHSGTLVHEGHMDRVVRHAIQQGLKPVTAIQMATINTAQHFRLEREIGSIAPGRLADLLIVSDLAAMTIDEVYARGVRLAKGGKLDIDIPAYDYPKTAKNTVKLGKKLRAGDFDITAPKGANEVRVRVIGVIENQAPTRALEADLPVEDGLVAMDRRNDVCQIALVERHRGTGGVTNAFVSGFGYMGDCAMASSVAHDAHHIICVGTNKQDMALAVNRLGQVGGGVVLFSKGKELALVEMPIAGLMSDERAEIVAAKAEKLTEAMRKMGCSLNNAYMQHSLLALVVIPELRISDVGLIDVTTFQKVDLFV | failed
9 | MAKKTSSLLSRRRTRRPGEPPLDLGSIPWLGYALDFGKDAASFLTRMKEKHGDIFTILVGGRYVTVLLDPHSYDAVVWEPRTRLDFHAYAIFLMERIFDVQLPHYSPSDEKARMKLTLLHRELQALTEAMYTNLHAVLLGDATEAGSGWHEMGLLDFSYSFLLRAGYLTLYGIEALPRTHESQAQDRVHSADVFHTFRQLDRLLPKLARGSLSVGDKDHMCSVKSRLWKLLSPARLARRAHRSKWLESYLLHLEEMGVSEEMQARALVLQLWATQGNMGPAAFWLLLFLLKNPEALAAVRGELESILWQAEQPVSQTTTLPQKVLDSTPVLDSVLSESLRLTAAPFITREVVVDLAMPMADGREFNLRRGDRLLLFPFLSPQRDPEIYTDPEVFKYNRFLNPDGSEKKDFYKDGKRLKNYNMPWGAGHNHCLGRSYAVNSIKQFVFLVLVHLDLELINADVEIPEFDLSRYGFGLMQPEHDVPVRYRIRPHHHH | not failed
10 | MAKKVAVLAVNPVNGCGLFQYLEAFFENGISYKVFAVSDTKEIKTNSGMVLIVDDVIANLKGHEDEFDALVFSCGDAVPVFQQYANQPYNVDLMEVIKTFGEKGKMMIGHCAGAMMFDFTGITKGKKVAVHPLAKPAIQNGIATDEKSEIDGNFFTAQDENTIWTMLPKVIEALKLEHHHHHH | not failed
11 | MAKMIILPKLVQKSVVSPKQTSQERVVTSTFSPPKPAGENISVQRRCELSEYHASGHVISHLPPPFAVAKPTPTTSLLPQPVRLINADAEDASCSSTPSWRIKKSLTCVCFNRKRAYERICSNLTPLQEERLKRLRKRMKNYYDASRPDHQDALRALWSATYPDEKLQDLISDQWKNMGWQGKDPSTDFRGAGFISLENLLFFAKTFSTSFQRLLNKQGGKRAAWEYPFAVAGVNITFMIMQMLDLEASKPRSFIRLVFLQMLSESEWAFDLLYCVAFVVMDKQWLDKNATYMEFNDVLRCTRGQLERELMMDDVFRIEDMPSFSLLS | failed
12 | MAKNDKINFSTPSGFPEFLPSEKRLELYLLDTIRRVYESYGFTPIETPAVERLEVLQAKGNQGDNIIYGLEPILPPNRQAEKDKSGDTGSEARALKFDQTVPLAAYIARHLNDLTFPFARYQMDVVFRGERAKDGRFRQFRQCDIDVVGREKLSLLYDAQMPAIITEIFEAVNIGDFVIRINNRKVLTGFFQSLNISETQIKSCISIIDNLEKIGEAKVKLELEKEGINPEQTQKIIDFVKIDGSVDDVLDKLKHLSQTLPESEQFNLGVSELETVITGVRNLGVPDKRFCIDLAIARGLNYYTGTVYETTLIGHEALGSICSGGRYEELVGTFIGEKMPGVGISIGLTRLISRLLKAGILNTLPPTPAQVVVVNMQDELMPTYLKVSQQLRQAGLNVITNFEKRQLGKQFQAADKQGIRFCVIIGADEAAAQKSSLKDLQSGEQVEVALADLAEEIKRRLT | not failed
13 | MAKNQWNELLLEQVRQLPMASSKEHVQLRLNLLIVEASKQKKTIPTEFELIFQAYQLSRSGKLIDSISVFFDAINFSQQNQQEFLICFCHYNIGTLYGMLGNYFYAQKFLAKAEKMQQFCDGYITGIIKNNIGDIFRQIGNFNEALIYLTQAAELLSQHGPKTAAALSYFNIAEIKAKQFLFTEANELLENLYQDIKNEPRYLGFYYKIKAEIASHSGEFEQADKLHLLSIENMQISEHDYYYAEMILEYCHFLTSCLQYKKLDQFIALGLAVAKKIESDKLIDGFNDIILLRIKDIDDINIREKHYQTLTSSLLNSRRELLKREGDYLQQLYRLNVAKLNLSTMKSLSDNLAVINKVGHYINTSSDIKNALPQIQQDLASLFQTDTLALGFYNSEQDQITIHYLDNNLPAQTPYITDCKSEATYMSYCIKSNSAFYFNHMNSEQKVAMLGDRCDSKVQFKSAMFSPITINGEVKGVFTIQARESYQYQTFHFELFSQLISYISIALENQYNRQQLLHLSQTDHLTQIWNRKSLEAHFNQLKQQQNQEYTGIMIDIDHYKEYNDTYGHIAGDEVLIQVSRLIKQGFHSLETQVYRYGGDEFFVLIPSIKPEKIRQKLDKLLIEVKKLLIPHKASTCSCYLSISVGIGYNKDPENQLSLNSLVNTADRALYQAKENGRNCYFELAHIKETMY | failed
14 | MAKNTLSFVCQNCGAAYNRWQGKCESCGEWNTLAEEDTSGSVPVSIRSKRKGRTFALESLAGKSPDAPRLSSGMTELDRVTGGGFVRGSVLLVGGDPGIGKSTLLTQATSLMARAGHRIVYISGEEAIAQVRLRAERLGLSDAPVQLAAETSVEDIVSTLSEGAVPRLIVIDSIQTMWTDTVESAPGTVTQVRASAQALIRFAKKTGAAIILVGHVTKDGQIAGPRVVEHMVDAVMSFEGEGSQQFRILRAVKNRFGPTDEIGVFEMTGLGLREVTNPSELFLSERDLGTPGTAVFAGIEGTRPVLVELQALVAPTSLGTPRRAVVGWDPSRLSMVLAVLEAHCGVKLSGHDVYLNVAGGLRIHEPAADLAAAAALVSSLVNAQLPTDAVYFGEISLSGVVRPVAQTPARLKEAAKLGFQRAVLPESARGEAGGDAGLSLNAVNSLTTLVAEIAARGSRRGESGGSAEKNATPARFRRGEGLEHHHHHH | failed
